Article PMC10689251

Molecular target: RuBisCO large subunit CbbL (Cyanobium sp. PCC 7001)
Experiment: cryo-EM structure; single-particle analysis of RuBisCO particles spilled from broken native α-carboxysomes of Cyanobium sp. PCC 7001 (sample ~1 mg/mL in TEMB buffer, graphene oxide coated grids); refined with D4 symmetry (2.87 Å) and without symmetry (3.79 Å); density for RuBP and magnesium in the active site

Substance: RuBisCO large subunit CbbL (natural protein)
- stoichiometry N: 8
